{"source": "patent US20210030857A1", "about": "(NGM BIOPHARMACEUTICALS, published 2021)", "binders": {"B1": {"name": "humanized 5H23 antibody (VH SEQ ID NO: 271 and VL SEQ ID NO: 276) (antibody, V domains shown)", "VH": "QVQLQQSGAEVKKPGASVKVSCKASGYTFTSYDINWVRQAPGQGLEWIGWIYPGDGSTKYNEKFKGKATITRDTSASTAYMELSSLRSEDTAVYFCARSDYYGSRSFAYWGQGTLVTVSS", "VL": "DIVMTQSPDSLAVSLGERATINCRASKSVSTSGYVYMHWYQQKPGQPPKLLIYLASYLESGVPDRFSGSGSGTDFTLTISSVQAEDVAVYYCQHSRDLTFPFGGGTKLEIK", "notes": "also called h5H23; h5H23 (Prep 1)"}}, "key": {"[1]": {"molecular_target": "T1, human beta klotho mutant R703A on HEK-293T cells (human, UniProt Q86Z14 1-1044)", "T1 sequence": "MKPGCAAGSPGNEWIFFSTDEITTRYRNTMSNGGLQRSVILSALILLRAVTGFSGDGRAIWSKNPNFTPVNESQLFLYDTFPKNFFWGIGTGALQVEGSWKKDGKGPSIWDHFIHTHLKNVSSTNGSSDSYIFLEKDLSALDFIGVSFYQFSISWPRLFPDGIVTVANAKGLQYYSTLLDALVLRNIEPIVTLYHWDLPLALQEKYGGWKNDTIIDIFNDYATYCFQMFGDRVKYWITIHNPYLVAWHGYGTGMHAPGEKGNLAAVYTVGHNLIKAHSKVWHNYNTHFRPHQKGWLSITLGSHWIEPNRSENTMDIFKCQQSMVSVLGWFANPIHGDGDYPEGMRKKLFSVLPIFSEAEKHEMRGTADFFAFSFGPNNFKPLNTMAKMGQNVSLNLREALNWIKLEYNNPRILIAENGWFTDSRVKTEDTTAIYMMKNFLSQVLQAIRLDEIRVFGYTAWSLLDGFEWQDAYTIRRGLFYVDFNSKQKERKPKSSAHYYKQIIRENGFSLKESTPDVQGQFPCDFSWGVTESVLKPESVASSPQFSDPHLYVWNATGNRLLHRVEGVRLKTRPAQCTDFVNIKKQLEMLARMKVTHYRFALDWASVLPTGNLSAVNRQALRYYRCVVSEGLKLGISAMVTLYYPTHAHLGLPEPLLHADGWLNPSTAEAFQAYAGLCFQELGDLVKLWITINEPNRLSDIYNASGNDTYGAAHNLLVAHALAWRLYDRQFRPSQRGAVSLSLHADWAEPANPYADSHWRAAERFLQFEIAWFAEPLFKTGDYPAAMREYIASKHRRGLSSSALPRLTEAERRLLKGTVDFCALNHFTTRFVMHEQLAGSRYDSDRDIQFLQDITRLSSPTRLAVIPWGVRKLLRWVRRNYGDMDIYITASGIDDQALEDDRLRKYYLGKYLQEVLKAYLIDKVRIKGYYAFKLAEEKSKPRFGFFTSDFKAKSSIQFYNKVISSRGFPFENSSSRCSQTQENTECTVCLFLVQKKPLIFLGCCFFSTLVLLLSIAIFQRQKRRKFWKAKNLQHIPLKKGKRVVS", "assay": "shotgun alanine mutagenesis, FACS on HEK-293T cells", "description": "(§1) In order to further identify specific binding residues within human beta klotho KL2 domain, shotgun mutagenesis was used to separately mutate individual residues of the KL2 domain of human beta klotho to an alanine (e.g., residues F508A-L1008A). […] For example, screening of the beta klotho mutant proteins was conducted at a concentration of 0.5 μg/ml for the humanized 5H23 antibody, 1.0 μg/ml for the Fab fragment, and 2.0 μg/ml for a positive control polyclonal anti-beta klotho antibodies."}, "[2]": {"molecular_target": "T2, human beta klotho mutant Y701A on HEK-293T cells (human, UniProt Q86Z14 1-1044)", "T2 sequence": "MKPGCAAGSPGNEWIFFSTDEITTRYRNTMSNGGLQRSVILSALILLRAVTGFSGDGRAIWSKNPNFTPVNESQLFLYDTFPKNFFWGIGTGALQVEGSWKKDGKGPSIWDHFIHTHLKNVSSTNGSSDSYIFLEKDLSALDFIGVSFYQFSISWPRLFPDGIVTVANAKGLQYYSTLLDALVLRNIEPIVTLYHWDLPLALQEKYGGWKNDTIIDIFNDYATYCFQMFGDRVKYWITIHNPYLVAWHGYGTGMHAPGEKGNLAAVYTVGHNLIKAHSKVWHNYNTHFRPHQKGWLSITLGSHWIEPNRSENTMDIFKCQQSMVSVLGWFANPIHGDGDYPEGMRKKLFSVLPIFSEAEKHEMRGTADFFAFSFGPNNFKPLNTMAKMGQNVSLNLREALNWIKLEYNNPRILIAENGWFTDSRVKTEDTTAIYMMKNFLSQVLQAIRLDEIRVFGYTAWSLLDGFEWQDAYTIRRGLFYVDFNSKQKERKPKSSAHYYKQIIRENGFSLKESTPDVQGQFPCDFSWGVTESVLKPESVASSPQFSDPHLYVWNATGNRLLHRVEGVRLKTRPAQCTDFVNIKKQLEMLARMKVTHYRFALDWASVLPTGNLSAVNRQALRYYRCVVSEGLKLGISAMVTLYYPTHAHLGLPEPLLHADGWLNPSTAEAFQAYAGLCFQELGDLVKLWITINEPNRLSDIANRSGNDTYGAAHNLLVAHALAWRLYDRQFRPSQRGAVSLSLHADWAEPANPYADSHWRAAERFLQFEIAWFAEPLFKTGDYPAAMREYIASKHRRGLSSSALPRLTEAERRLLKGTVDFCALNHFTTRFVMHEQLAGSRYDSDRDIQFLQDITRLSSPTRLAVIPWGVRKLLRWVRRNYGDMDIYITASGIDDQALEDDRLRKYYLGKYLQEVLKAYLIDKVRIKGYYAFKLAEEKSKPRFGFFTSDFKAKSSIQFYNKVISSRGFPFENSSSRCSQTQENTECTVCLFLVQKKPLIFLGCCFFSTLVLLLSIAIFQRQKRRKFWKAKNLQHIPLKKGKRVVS", "assay": "shotgun alanine mutagenesis, FACS on HEK-293T cells", "description": "as §1"}}, "data": [{"binder": "B1", "values": [{"measurement": "binding result", "setting": "[1]", "result": "no binding (tested: 0.5 µg/ml)"}, {"measurement": "binding result", "setting": "[2]", "result": "no binding (tested: 0.5 µg/ml)"}]}]}
